Test results taken from patent US20220119541A1 (PHARMAEXPLORER, published 2022).
Like-named read-outs stand apart in the source and are kept apart here.

What was measured:
[1] = biological target: T1, human GITR (full length, on cells) (human, UniProt Q9Y5U5 26-241); assay: cell-based or functional assay
T1 sequence (looked up): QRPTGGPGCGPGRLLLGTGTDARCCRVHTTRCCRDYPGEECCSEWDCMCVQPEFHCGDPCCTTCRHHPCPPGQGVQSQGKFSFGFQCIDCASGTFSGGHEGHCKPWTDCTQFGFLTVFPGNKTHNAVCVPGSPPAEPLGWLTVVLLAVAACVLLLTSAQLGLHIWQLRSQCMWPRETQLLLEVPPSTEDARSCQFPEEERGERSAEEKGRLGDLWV

[2] = biological target: T2, monkey GITR (full length, on cells) (monkey); assay: flow cytometry (FACS) on 293F-cGITR cells, MFI curve fit
T2 construct: whole, on cells; also called cGITR
Procedure: (§1) The pIRES plasmid with the monkey-derived GITR full-length gene was transfected into the HEK293 cell line to construct a HEK293 stable cell line containing monkey GITR (herein referred to as HEK293-cGITR stable cell line), wherein the database accession number of the monkey GITR nucleotide sequence is XP_005545180.1. The tool antibody Tab9H6v3 was constructed with reference to the patent (US_2015_0064204_A1). […] The medium was aspirated, and the cells were incubated with chimeric anti-GITR antibody or IgG1 isotype control antibody in PBS+2% FBS for 1 hour so that the antibody binds to the GITR protein expressed on the cell surface. Cells were collected and washed, and then incubated with anti-human antibody conjugated with fluorescent dye at 4° C. for 1 hour. Mean fluorescence intensity (MFI) of chimeric anti-GITR antibodies bound to cells expressing hGITR or cGITR was determined by flow cytometry. The EC50 of the fitting curve was calculated by GraphPad Prism software. The antibody to be tested can bind to human or monkey GITR protein on the cell surface. The data in the table is the average fluorescence intensity values of the cell populations measured by MFI.

[3] = biological target: T1, human GITR (full length, on cells); assay: flow cytometry (FACS) on 293F-hGITR cells, MFI curve fit
Procedure: as §1

hGITR-ECD-hFc [4] = biological target: T3, hGITR-ECD-hFc (human, UniProt Q9Y5U5 26-161); assay: SPR (Biacore), hGITR-ECD-hFc immobilised on CM5 chip, antibody as analyte
T3 construct: ECD put first; also called immunogen A; human GITR extracellular domain protein with hFc tag; not shown: human IgG Fc fragment (hFc) of the pCpC vector
T3 chain: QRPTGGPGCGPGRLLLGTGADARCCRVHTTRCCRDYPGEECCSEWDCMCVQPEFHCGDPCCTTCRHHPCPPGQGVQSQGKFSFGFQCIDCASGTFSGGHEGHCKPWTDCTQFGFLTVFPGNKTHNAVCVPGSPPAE
Procedure: (§2) The antigen hGITR-ECD-hFc was immobilized on the chip surface in manual mode using the running buffer HBS-EP+(10 mM HEPES, 150 mM NaCl, 3 mM EDTA, 0.05% P20, pH 7.4). First, a fresh mixture of 50 mM NHS and 200 mM EDC was used to activate the flow cell 4 of the tandem S CM5 sensor chip. The antigen was then diluted to 1 μg/ml with 10 mM NaAC (pH 5.0) and was injected into flow cell 4 for approximately 40 seconds. Finally, 1 M ethanolamine was used to block the remaining active coupling sites.
Binding kinetics and affinity of the engineered fully human anti-GITR antibody to the antigen hGITR-ECD-hFc protein were tested by Biacore according to step (5) of Example 5, and the results are shown in Table 17.

hGITR-ECD-hFc [5] = biological target: T3, hGITR-ECD-hFc; assay: ELISA, hGITR-ECD-hFc coated on plate, HRP anti-human Fab detection
Procedure: (§3) HGITR-ECD-hFc protein and cGITR-ECD-hFc protein were diluted to 1 μg/ml with PBS hydrochloric acid buffer (pH 7.2), and 100 μl dilution was added to 96-well ELISA microplate, and incubated at 4° C. overnight. The microplate was washed three times with 300 μl/well wash buffer PBST (PBS+0.05% Tween-20), 300 μl blocking buffer (PBST+1% BSA) was added to each well, and incubated at room temperature for 2 hours. The plate was washed three times, 100 μl, 10 μg/ml anti-GITR antibody was added to each well, and was incubated at 37° C. for 1 hour. The plate was washed three times, 100 μl horseradish peroxidase (HRP) labeled anti-human Fab secondary antibody was added to each well, and was incubated at 37° C. for half an hour. The plate was washed three times, 100 μl tetramethylbenzidine (TMB) was added to each well. After 15 minutes of color development, 50 μl 1N HCl termination solution was added to each well, and the OD450 value was read with a plate reader. The EC50 of the binding curve was calculated by GraphPad Prism software.
The binding activity of the engineered fully human anti-GITR antibody to the hGITR-ECD-hFc protein or the cGITR-ECD-hFc protein was detected by an enzyme-linked immunosorbent assay iaccording to the step (1) of Example 5.

cGITR-ECD-hFc [6] = biological target: T4, cGITR-ECD-hFc (rhesus; human, UniProt F7DDV8 14-149); assay: ELISA, cGITR-ECD-hFc coated on plate, HRP anti-human Fab detection
T4 sequence (F7DDV8 entry or part of it): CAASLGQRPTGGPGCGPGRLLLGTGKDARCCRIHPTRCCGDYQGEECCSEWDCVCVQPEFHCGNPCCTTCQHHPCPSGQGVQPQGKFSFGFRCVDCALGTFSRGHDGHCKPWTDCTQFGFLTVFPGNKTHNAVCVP

[7] = biological target: T1, human GITR (full length, on cells); assay: cell-based or functional assay; remark: listed apart in the source
[8] = biological target: T2, monkey GITR (full length, on cells); assay: flow cytometry (FACS) on 293F-cGITR cells, MFI curve fit; remark: listed apart in the source
Procedure: as §1

[9] = biological target: T1, human GITR (full length, on cells); assay: cell-based or functional assay; remark: listed apart in the source
hGITR-ECD-hFc [10] = biological target: T3, hGITR-ECD-hFc; assay: ELISA, hGITR-ECD-hFc coated on plate, HRP anti-human Fab detection
Procedure: as §3

[11] = biological target: T1, human GITR (full length, on cells); assay: flow cytometry (FACS) on 293F-hGITR cells, MFI curve fit; remark: listed apart in the source
Procedure: as §1

cGITR-ECD-hFc [12] = biological target: T4, cGITR-ECD-hFc; assay: ELISA, cGITR-ECD-hFc coated on plate, HRP anti-human Fab detection; remark: listed apart in the source
hGITR-ECD-hFc [13] = biological target: T3, hGITR-ECD-hFc; assay: SPR (Biacore T200), hGITR-ECD-hFc immobilised on CM5 chip, antibody as analyte
Procedure: as §2
Buffer flow was maintained for 600 seconds to determine dissociation. To remove the test antibody from the surface, 10 mM Glycine-HCl (pH 1.5) was injected into flow cells 1 and 4 at a flow rate of 10 μ L/min for 30 seconds. The above steps were repeated for each concentration of continuously diluted antibodies.
The KD value of each antibody was evaluated using Biacore T200 evaluation software 3.0, where flow cell 1 was used as a reference flow cell.

B1: 3503-mAb019 (antibody, V domains shown)
VH: QVQLVESGGGVVQPGRSLRLSCAASGFTFSSYGMHWVRQAPGKGLEWVAVIWYAGSRKFYADSVEGRFTISRDNSKNTLYLQMSSVRPEDTAVYYCARGGSLDGGFFYYGMDVWGQGTTVTVSS
VL: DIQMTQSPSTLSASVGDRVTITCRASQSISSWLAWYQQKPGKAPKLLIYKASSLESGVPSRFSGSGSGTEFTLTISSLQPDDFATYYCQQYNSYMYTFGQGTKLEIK
notes: Chimeric antibody purified from hybridoma supernatant of Harbour H2L2 mice: human variable regions with rat constant regions; also called 96A10H9; chimeric anti-GITR antibody
Activation of NF-κB activity, EC50 (nM), Coupling (Crosslinking) [1]: 12.5 nM
EC50 [2]: 0.01 nM
EC50 [3]: 0.07 nM

B2: 3503-hab019e2 (antibody, V domains shown)
VH: QVQLVESGGGVVQPGRSLRLSCAASGFTFSSYGMHWVRQAPGKGLEWVAVIWYAGSRKFYADSVEGRFTISRDNSKNTLYLQMNSLRAEDTAVYYCARGGSLEGGFFYYGMDVWGQGTTVTVSS
VL: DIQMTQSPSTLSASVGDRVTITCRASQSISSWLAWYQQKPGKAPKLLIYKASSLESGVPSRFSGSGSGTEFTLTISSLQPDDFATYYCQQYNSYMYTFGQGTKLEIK
notes: also called 96A10H9; engineered fully human anti-GITR antibody
Kd (hGITR-ECD-hFc [4]): 0.384 nM
koff (hGITR-ECD-hFc [4]): 0.00023 s⁻¹
kon (hGITR-ECD-hFc [4]): 600000 M⁻¹ s⁻¹
EC50 [2]: 0.31 nM
EC50 (hGITR-ECD-hFc [5]): 0.089 nM
EC50 (cGITR-ECD-hFc [6]): 0.096 nM
Activation of NF-κB activity, EC50 (nM), Coupling [7]: 1.74 nM
Activation of NF-κB activity, EC50 (nM), Non-coupling [7]: 0.139 nM
EC50 [3]: 0.155 nM

B3: 3503-hab064 (antibody, V domains shown)
VH: QVQLVESGGGVVQPGRSLRLSCAASGFTFSSYGMHWVRQAPGKGLEWVAVIWYETSNKYYADSVKGRFTISRDNSKNTLYLQMNNLRAEDTAVYYCARYGGNSGWYWYFDLWGRGTLVTVSS
VL: DIQLTQSPSFLSASVGDRVTITCRASQGISSFLAWYQQKPGTAPKLLIYAASTLQSGVPSRFSGSGSGTEFTLTISSLQPEDFATYCCQQLNSYPFTFGQGTKLEIK
notes: also called 265G9A11; fully human anti-GITR antibody
EC50 [8]: 0.254 nM
Activation of NF-κB activity, EC50 (nM), Coupling [9]: 2.8 nM
Activation of NF-κB activity, EC50 (nM), Non-coupling [9]: 0.177 nM
EC50 (hGITR-ECD-hFc [10]): 0.0443 nM
EC50 [11]: 0.194 nM
EC50 (cGITR-ECD-hFc [12]): 0.0369 nM
Kd (hGITR-ECD-hFc [13]): 0.592 nM
koff (hGITR-ECD-hFc [13]): 0.000315 s⁻¹
kon (hGITR-ECD-hFc [13]): 532000 M⁻¹ s⁻¹

B4: 3503-mAb070 (antibody, V domains shown)
VH: QVQLVESGGGVVQPGRSLRLSCAASGFTFSSYGMHWVRQAPGKGLEWVAVIWYETSNKFYVDSVKGRFTISRDNSKNTLYLQMNSLRAEDTAVYYCARYGASSGWYWYFDLWGRGTLVTVSS
VL: DIQLTQSPSFLSASVGDRVTITCRASQGISSFLAWYQQKPGKAPKLLIYAASTLQSGVPSRFSGSGSGTEFTLTISSLQPEDFATYCCQQLNSYPFTFGQGTKLEIK
notes: Chimeric antibody purified from hybridoma supernatant of Harbour H2L2 mice: human variable regions with rat constant regions; also called 272G5E1; chimeric anti-GITR antibody
Activation of NF-κB activity, EC50 (nM), Coupling (Crosslinking) [1]: > 0.09 nM
Activation of NF-κB activity, EC50 (nM), Non-coupling (Non-Crosslinking) [1]: 0.062 nM
EC50 [2]: 0.198 nM
EC50 [3]: 0.358 nM

B5: 3503-mAb076 (antibody, V domains shown)
VH: QVQLVESGGGVVQPGRSLRLSCAASGFTFSSYGMHWVRQAPGKGLEWVAVIWYETSNKYYADSVKGRFTISRDNSKNTLYLQMNSLRAEDTAVYYCARYGASSGWYWYFDLWGRGTLVTVSS
VL: DIQLTQSPSFLSASVGDRVTITCRASQGISSYLAWYQQKPGKAPKLLIYAASTLQSGVPSRFSGSGSGTEFTLTISSLQPEDFATYCCQQLNSYPFTFGQGTKLEIK
notes: Chimeric antibody purified from hybridoma supernatant of Harbour H2L2 mice: human variable regions with rat constant regions; also called 277C12G4; chimeric anti-GITR antibody
Activation of NF-κB activity, EC50 (nM), Coupling (Crosslinking) [1]: > 0.27 nM
Activation of NF-κB activity, EC50 (nM), Non-coupling (Non-Crosslinking) [1]: > 0.09 nM
EC50 [2]: 0.226 nM
EC50 [3]: 0.152 nM

B6: 3503-hab076 (antibody, V domains shown)
VH: QVQLVESGGGVVQPGRSLRLSCAASGFTFSSYGMHWVRQAPGKGLEWVAVIWYETSNKYYADSVKGRFTISRDNSKNTLYLQMNSLRAEDTAVYYCARYGASSGWYWYFDLWGRGTLVTVSS
VL: DIQLTQSPSFLSASVGDRVTITCRASQGISSYLAWYQQKPGKAPKLLIYAASTLQSGVPSRFSGSGSGTEFTLTISSLQPEDFATYCCQQLNSYPFTFGQGTKLEIK
notes: also called 277C12G4; fully human anti-GITR antibody
EC50 [8]: 0.58 nM
Activation of NF-κB activity, EC50 (nM), Coupling [9]: 1.33 nM
Activation of NF-κB activity, EC50 (nM), Non-coupling [9]: 0.127 nM
EC50 (hGITR-ECD-hFc [10]): 0.0593 nM
EC50 [11]: 0.173 nM
EC50 (cGITR-ECD-hFc [12]): 0.0551 nM
Kd (hGITR-ECD-hFc [13]): 1.03 nM
koff (hGITR-ECD-hFc [13]): 0.000684 s⁻¹
kon (hGITR-ECD-hFc [13]): 664000 M⁻¹ s⁻¹

B7: 3503-mAb064 (antibody, V domains shown)
VH: QVQLVESGGGVVQPGRSLRLSCAASGFTFSSYGMHWVRQAPGKGLEWVAVIWYETSNKYYADSVKGRFTISRDNSKNTLYLQMNNLRAEDTAVYYCARYGGNSGWYWYFDLWGRGTLVTVSS
VL: DIQLTQSPSFLSASVGDRVTITCRASQGISSFLAWYQQKPGTAPKLLIYAASTLQSGVPSRFSGSGSGTEFTLTISSLQPEDFATYCCQQLNSYPFTFGQGTKLEIK
notes: Chimeric antibody purified from hybridoma supernatant of Harbour H2L2 mice: human variable regions with rat constant regions; also called 265G9A11; chimeric anti-GITR antibody
Activation of NF-κB activity, EC50 (nM), Coupling (Crosslinking) [1]: 0.101 nM
Activation of NF-κB activity, EC50 (nM), Non-coupling (Non-Crosslinking) [1]: > 0.2 nM
EC50 [2]: 0.404 nM
EC50 [3]: 0.385 nM
